Test results taken from article PMC10716131 (2023).
Blank lines part the entries; values can stand above or below the binder they belong to.

Tests used:
[1] = molecular target: T1, DDB1:CRBN complex, full-length human CRBN (residues 1–442) with N-terminal biotinylated Avi-tag, co-expressed … (human, UniProt Q96SW2 1-442; Q16531 1-1140, biotin on the Avi-tag (BirA, 100% efficiency)); assay: SPR; pomalidomide 5 uM
[2] = molecular target: T1, DDB1:CRBN complex, full-length human …; assay: SPR; CC-220
[3] = molecular target: T1, DDB1:CRBN complex, full-length human …; assay: SPR; CC-220; remark: listed apart in the source
[4] = molecular target: T1, DDB1:CRBN complex, full-length human …; assay: SPR; pomalidomide
[5] = molecular target: T1, DDB1:CRBN complex, full-length human …; assay: SPR; pomalidomide; remark: listed apart in the source
[6] = molecular target: T1, DDB1:CRBN complex, full-length human …; assay: SPR; CC-220 5 uM

T1 sequence (Q96SW2 whole entry, chain 1 of 2, the tested form may be a part): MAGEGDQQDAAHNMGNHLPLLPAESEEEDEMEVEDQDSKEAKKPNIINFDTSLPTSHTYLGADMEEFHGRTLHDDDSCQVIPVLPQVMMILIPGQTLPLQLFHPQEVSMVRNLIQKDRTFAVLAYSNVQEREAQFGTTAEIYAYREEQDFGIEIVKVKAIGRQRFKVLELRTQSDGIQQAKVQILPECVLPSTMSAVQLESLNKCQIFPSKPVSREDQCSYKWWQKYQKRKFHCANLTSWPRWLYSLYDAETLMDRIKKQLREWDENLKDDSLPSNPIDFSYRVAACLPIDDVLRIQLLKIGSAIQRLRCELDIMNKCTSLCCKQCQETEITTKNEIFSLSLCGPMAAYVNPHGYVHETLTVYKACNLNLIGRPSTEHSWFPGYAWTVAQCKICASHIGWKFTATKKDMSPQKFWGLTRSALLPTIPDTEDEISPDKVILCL
T1 sequence (Q16531 whole entry, chain 2 of 2, the tested form may be a part): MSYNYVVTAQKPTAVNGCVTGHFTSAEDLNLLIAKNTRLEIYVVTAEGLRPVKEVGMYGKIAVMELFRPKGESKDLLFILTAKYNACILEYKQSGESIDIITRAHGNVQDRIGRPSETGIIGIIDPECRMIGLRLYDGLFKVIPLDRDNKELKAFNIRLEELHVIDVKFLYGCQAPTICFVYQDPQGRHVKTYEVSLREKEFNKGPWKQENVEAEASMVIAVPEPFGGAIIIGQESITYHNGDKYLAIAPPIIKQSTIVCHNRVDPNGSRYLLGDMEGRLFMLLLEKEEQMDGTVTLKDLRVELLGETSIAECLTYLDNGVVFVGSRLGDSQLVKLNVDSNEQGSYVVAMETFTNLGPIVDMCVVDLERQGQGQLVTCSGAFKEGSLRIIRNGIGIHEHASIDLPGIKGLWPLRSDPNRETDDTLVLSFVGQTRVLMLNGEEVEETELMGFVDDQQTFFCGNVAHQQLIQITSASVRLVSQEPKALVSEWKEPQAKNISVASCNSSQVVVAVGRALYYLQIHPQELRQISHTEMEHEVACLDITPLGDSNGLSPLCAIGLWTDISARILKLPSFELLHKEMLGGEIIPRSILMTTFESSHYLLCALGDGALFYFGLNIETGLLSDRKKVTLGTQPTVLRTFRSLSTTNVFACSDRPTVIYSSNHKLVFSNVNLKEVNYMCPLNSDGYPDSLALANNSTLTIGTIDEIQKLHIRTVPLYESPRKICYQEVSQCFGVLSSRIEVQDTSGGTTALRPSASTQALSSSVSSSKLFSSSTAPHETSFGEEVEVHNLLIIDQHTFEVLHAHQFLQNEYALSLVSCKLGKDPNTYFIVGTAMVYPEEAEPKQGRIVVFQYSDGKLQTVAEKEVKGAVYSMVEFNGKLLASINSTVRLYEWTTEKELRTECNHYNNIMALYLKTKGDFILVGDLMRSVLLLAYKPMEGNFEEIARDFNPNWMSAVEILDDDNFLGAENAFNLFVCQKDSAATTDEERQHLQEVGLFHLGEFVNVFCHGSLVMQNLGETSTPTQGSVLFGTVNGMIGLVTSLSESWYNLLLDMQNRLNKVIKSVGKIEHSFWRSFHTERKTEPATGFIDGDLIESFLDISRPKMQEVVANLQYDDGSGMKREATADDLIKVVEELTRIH

B2: Human SALL4 ZF1-2(379–432) (domain or fragment)
chain: LYKHKCKYCSKVFGTDSSLQIHLRSHTGERPFVCSVCGHRFTTKGNLKVHFHRH
koff [2]: 0.34 s⁻¹ | Kd [3]: 150 µM | Kd [4]: 2.1 µM | koff [5]: 0.26 s⁻¹

B3: Human SALL4 ZF1-2(370–454) (domain or fragment)
chain: DVKPKDEAALYKHKCKYCSKVFGTDSSLQIHLRSHTGERPFVCSVCGHRFTTKGNLKVHFHRHPQVKANPQLFAEFQDKVAAGNG
koff [2]: 0.042 s⁻¹ | Kd [3]: 0.28 µM | Kd [1]: 0.06 µM | Kd [4]: 0.06 µM | Kd [6]: 0.31 µM | koff [5]: 0.015 s⁻¹

Continued, values first:

Kd [1]: 67.1 µM
B1: Human SALL4 ZF2(405–432) (domain or fragment)
chain: not shown

Kd [1]: 0.7 µM | Kd [6]: 2.1 µM
Binder: TGERPFVCSVCGHRFTTKGNLKVHFHRHPQVKANPQLFAEFQDKVAAGNG (domain or fragment) [Human SALL4 ZF2(405–454)]

Kd [6]: 4 µM
Binder: TGERPFVCSVCGHRFTTKGNLKVHFHRHPQVKA (domain or fragment) [Human SALL4 ZF2(405–437)]
